Target: the molecule itself
Assay: SEC; HiLoad 26/600 Superdex 200 pg in PBS, after IMAC; peaks identified using BSA as a molecular weight marker

B1: mature Vascular Endothelial Growth Factor C (dNdC-hVEGF-C-H6) (ligand, human, UniProt P49767 112-227, looked up)
chain: AHYNTEILKSIDNEWRKTQCMPREVCIDVGKEFGVATNTFFKPPCVSVYRCGGCCNSEGLQCMNTSTSYLSKTLFEITVPLSQGPKPVTISFANHTSCRCMSKLDVYRQVHSIIRR
notes: VEGF-C, human, dNdC form (called mature VEGFC); secreted with the BiP signal peptide of the vector pMT-Ex; SEC gave dimeric and monomeric species; The dimeric peak was collected and used for nanoparticle loading and the bioassays; also called mature VEGFC; purified mature VEGFC; not shown: His6 (H6 in the construct's name)
stoichiometry N: 2
